Data from paper PMC10606924, “Interactions of Nucleosomes with Acidic Patch-Binding Peptides: A Combined Structural Bioinformatics, Molecular Modeling, Fluorescence Polarization, and Single-Molecule FRET Study” (International Journal of Molecular Sciences, 2023).
“Also recorded” adds a separate entry of the source.

What was measured:
[1] = target: nucleosome (H. sapiens canonical histone octamer on 147 bp Widom 603 DNA) (H. sapiens) (UniProt P04908); experiment: fluorescence polarisation; 100 nM FAM-LANA_(1-22) as tracer, nucleosome concentration varied by two-fold serial dilution, 30 min at +4 C; 10 mM TrisHCl pH 8.0, 200 uM EDTA, 5 mM 2-mercaptoethanol, 10 mM NaCl; simple direct binding model with identical, non-interacting sites
[2] = test system: Cy3/Cy5-labeled mononucleosomes (603 DNA, 147 bp); experiment: Single-molecule FRET (spFRET) of nucleosome-peptide interactions; format: biochemical, H. sapiens; conditions: 10 μM peptide
Text: Non-fluorescently labeled nuclesomal DNA fragments were obtained as follows. pUC57 plasmids containing eight repeats of the high-affinity 147 bp Widom 603 sequence were amplified in E. coli XL-10 stain and purified via alkaline lysis (see details in Supplementary Materials and Methods). The Widom 603 fragments were released via cleavage with EcoRV and separated from parent plasmid with polyethylene glycol precipitation in order to clear the vector backbone as described in [86]. Nucleosomal DNA fragments fluorescently labeled at the 35 and 112 bp positions were obtained following established protocols. […]
NCPs were reconstituted by mixing 147 bp Widom 603 DNA and histone octamers at a 1:1.15 molar ratio. […] Fluorescently labeled nucleosomes were detected by in-gel FRET using a Typhoon scanner (GE Healthcare, Chicago, IL, USA) with excitation at 532 nm laser and emission at 670 nm (FRET between Cy3 and Cy5) or 580 nm (Cy3 signal) (Supplementary Figure S5).
Single-particle FRET measurements were conducted with LSM710-Confocor3 laser scanning confocal microscope (Carl Zeiss, Jena, Germany) as described previously. […] To evaluate the level of background signal and reveal fluorescence bursts, spFRET data were analyzed using the FretBursts version 0.7.1 software. […]

[3] = test system: FAM-LANA1-22 (Kaposi's sarcoma-associated herpesvirus); experiment: fluorescence polarization; conditions: FP: 10 mM Tris-HCl pH 8.0, 0.2 mM EDTA, 5 mM 2-mercaptoethanol, 10 mM NaCl, 30 min incubation at 4 C, EMSA: 6% PAGE, 10 mM HEPES-Na pH 8.0, 0.2 mM EDTA

FAM-labeled LANA_(1-22) peptide (from UniProt Q9QR71 1-22)
Kd [1]: 400 nM

PNVRRSNRIRLKPLEYWRGERIDYQ [CENP-Cmotif, fragment of CENP-C protein (amino acids 710–734) from R. norvegicus]
shift of EPR value distribution ([2]; 1 nM nucleosomes): shift of the EPR value distribution towards higher EPR values; also recorded: makes nucleosomes, on average, more compact
effect on average nucleosome compactness, compared with LANA1-22 ([2]; spFRET): higher than that of LANA1-22; also recorded: makes nucleosomes more compact than LANA1-22, on average

Widom 603 nucleosome
Kd [3]: 400 nM
